Measurements taken from PMC9120032, “SARS-CoV-2 ORF6 disrupts nucleocytoplasmic trafficking to advance viral replication” (Communications Biology, 2022).

B1: GST-GFP-fused ORF6 full-length protein (natural protein)
chain: MFHLVDFQVTIAEILLIIMRTFKVSIWNLDYIINLIIKNLSKSLTENKYSQLDEEQPMEID
notes: Held on glutathione Sepharose beads by its GST; also called GST-GFP-ORF6; GST-GFP-ORF6 wild type (WT); not shown: GST, N-terminal, kept; GFP, N-terminal, kept
B2: GST-GFP fused with the C-terminal peptide of ORF6 wild type (49-61 amino acids) (peptide)
chain: YSQLDEEQPMEID
notes: SARS-CoV-2 ORF6, the 13 amino acids 49-61 of the C-terminal region (M0); also called GST-M0-GFP; M0; not shown: GST, N-terminal, kept; GFP, C-terminal, kept

Experiments:
[1] = target: T1, Flag-importin α1 recombinant protein (human, UniProt P52292 1-529); assay: pull-down; GST fusion proteins immobilised on glutathione-Sepharose 4B beads; recombinant proteins (100 pmol each) in 200 μL transport buffer (20 mM HEPES pH 7.3, 110 mM potassium acetate, 2 mM magnesium acetate, 1 mM EGTA, 1 mM DTT) with 0.1% Triton X-100, 4 °C, 1 h; five washes; western blot; conditions: both partners purified
T1 construct: human importin α1 (KPNA2); also called Flag-Impα1; FLAG-h-importin α1; source: bacterially expressed recombinant protein, purified; not shown: FLAG, N-terminal, kept

[2] = target: T2, bacterially purified recombinant STAT1 protein (human, UniProt P42224 1-750); assay: as above; conditions: both partners purified
T2 construct: human STAT1, full length, subcloned into pGEX6P2 from the pcDNA5/FRT/3xFLAG expression vector; The methods tell in general that GST tags were cleaved with PreScission or thrombin; also called STAT1 recombinant protein; Flag-h-STAT1; source: bacterially expressed recombinant protein, purified; not shown: Flag, N-terminal, kept
T2 sequence: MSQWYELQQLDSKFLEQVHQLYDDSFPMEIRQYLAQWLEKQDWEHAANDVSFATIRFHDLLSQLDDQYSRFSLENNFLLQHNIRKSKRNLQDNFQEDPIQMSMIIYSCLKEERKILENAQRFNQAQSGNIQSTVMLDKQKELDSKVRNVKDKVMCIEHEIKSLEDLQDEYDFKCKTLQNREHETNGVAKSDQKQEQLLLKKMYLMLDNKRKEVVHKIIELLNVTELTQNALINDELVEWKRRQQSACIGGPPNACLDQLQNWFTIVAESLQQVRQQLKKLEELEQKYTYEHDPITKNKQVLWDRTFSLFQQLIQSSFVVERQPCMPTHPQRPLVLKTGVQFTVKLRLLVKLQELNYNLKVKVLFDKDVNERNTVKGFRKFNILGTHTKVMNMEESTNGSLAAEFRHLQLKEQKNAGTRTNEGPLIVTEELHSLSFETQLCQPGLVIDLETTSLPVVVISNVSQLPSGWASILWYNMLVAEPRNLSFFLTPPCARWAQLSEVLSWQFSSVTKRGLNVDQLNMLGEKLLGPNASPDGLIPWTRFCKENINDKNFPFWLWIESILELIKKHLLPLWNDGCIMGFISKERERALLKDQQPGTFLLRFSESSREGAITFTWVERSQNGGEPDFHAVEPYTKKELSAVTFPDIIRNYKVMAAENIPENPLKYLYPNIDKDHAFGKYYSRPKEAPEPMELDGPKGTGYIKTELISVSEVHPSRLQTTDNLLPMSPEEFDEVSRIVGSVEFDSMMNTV

Row | Binder | binding result [1] | binding result [2]
1 | B1 | binds | 
2 | B2 |  | binds
